EC50 and Kd data for three molecules are collected here from EP4634231A1 (dated 2025).

Assay [1] addresses T1, MUC-16 (CA125) expressed on SW1990 and OVCAR3 cancer cells (human, UniProt Q8WXI7 1-14507).
T1 construct: whole, on cells
The assay is described as follows: flow cytometry on MUC16 expressing cancer cells. For orientation: Flow cytometry measures light scatter and fluorescence of single cells or particles in a stream.

Assay [2] concerns the target T1, MUC-16 (CA125) expressed on SW1990 and …. The assay is described as follows: flow cytometry saturation binding (MFI against concentration) on MUC-16 expressing SW1990 and OVCAR3 cells.

B1: 89Zr-DFO-M16Ab, M16Ab conjugated with p-SCN-Bn-DFO and radiolabeled with 89Zr (antibody, V domains shown)
VH: QVQLVESGGGVVQPGGSLRLSCAASGFTFSTYGMHWVRQAPGKGLEWVAVISYDGSNKYYADSVKGRFTISRDNTNNSLYLQMSGLRAEDSAVYYCAKDVYGDFAVDSWGQGTLVTVSS
VL: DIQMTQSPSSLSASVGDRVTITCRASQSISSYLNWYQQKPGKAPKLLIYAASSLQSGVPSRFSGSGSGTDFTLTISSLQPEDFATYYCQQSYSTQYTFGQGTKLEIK
modifications: p-SCN-Bn-DFO chelator loaded with 89Zr; sites not stated
notes: also called 89Zr-DFO-M16Ab1; 89Zr-M16Ab1
B1 gave a 50% effective concentration (EC50) in assay [1] of 10 nM. This counts as double-digit nanomolar.

B2: M16Ab1, fully human anti-MUC16 monoclonal antibody, full-length IgG1 (antibody, V domains shown)
VH: QVQLVESGGGVVQPGGSLRLSCAASGFTFSTYGMHWVRQAPGKGLEWVAVISYDGSNKYYADSVKGRFTISRDNTNNSLYLQMSGLRAEDSAVYYCAKDVYGDFAVDSWGQGTLVTVSS
VL: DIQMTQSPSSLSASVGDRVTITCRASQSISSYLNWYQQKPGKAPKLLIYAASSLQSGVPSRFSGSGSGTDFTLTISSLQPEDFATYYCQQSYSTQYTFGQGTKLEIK
notes: also called MUC16 Ab1; MUC-16 Ab1
Take B2: in assay [2], the midpoint of the response, the EC50, lay at 9.1 nM and the affinity, expressed as Kd, was 10.9 nM.

B3: DFO-M16Ab1, M16Ab1 IgG1 conjugated with p-SCN-Bn-DFO (antibody, V domains shown)
VH: QVQLVESGGGVVQPGGSLRLSCAASGFTFSTYGMHWVRQAPGKGLEWVAVISYDGSNKYYADSVKGRFTISRDNTNNSLYLQMSGLRAEDSAVYYCAKDVYGDFAVDSWGQGTLVTVSS
VL: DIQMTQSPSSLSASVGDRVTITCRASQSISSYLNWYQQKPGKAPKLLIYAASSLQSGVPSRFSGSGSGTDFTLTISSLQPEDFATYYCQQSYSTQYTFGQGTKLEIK
modifications: p-SCN-Bn-DFO (deferoxamine) conjugated, average of two DFO molecules per antibody; sites not stated
notes: also called DFO-MUC16 Ab 1; DFO-MUC16 AB1
Turning to B3, in assay [2], a half-maximal response (EC50) required 10.3 nM and binding was put at a Kd of 12.7 nM.

Broadly, the EC50 is the concentration needed to bring the measured effect to its halfway point. Read a high EC50 as a need for much substance. Broadly, the Kd is the constant that tells how readily two partners part at equilibrium. Read a high Kd as lower affinity.
